Reference: patent US20220143024A1, “METHODS OF USING IMIPRIDONES” (Board of Regents, The University of Texas System, priority 2019, published 2022)

Tests used:
Assay in all cases: BioID-MS
[1] = target: ABAT (human) (UniProt P80404)
[2] = target: ABHD10 (human) (UniProt Q9NUJ1)
[3] = target: ACADVL (human) (UniProt P49748)
[4] = target: ACAT1 (human) (UniProt P24752)
[5] = target: ACN9 (human) (UniProt Q9NRP4)
[6] = target: BCKDHA (human) (UniProt P12694)
[7] = target: BCS1L (human) (UniProt Q9Y276)
[8] = target: C20orf72 (human) (UniProt Q9BQP7)
[9] = target: CDK5RAP1 (human) (UniProt Q96SZ6)
[10] = target: DHRS4 (human) (UniProt Q9BTZ2)
[11] = target: ECHS1 (human) (UniProt P30084)
[12] = target: FOXRED1 (human) (UniProt Q96CU9)
[13] = target: GATC (human) (UniProt O43716)
[14] = target: GPT2 (human) (UniProt Q8TD30)
[15] = target: GRPEL1 (human) (UniProt Q9HAV7)
[16] = target: GTPBP10 (human) (UniProt A4D1E9)
[17] = target: GTPBP3 (human) (UniProt Q969Y2)
[18] = target: HADH (human) (UniProt Q16836)
[19] = target: HARS2 (human) (UniProt P49590)
[20] = target: HINT2 (human) (UniProt Q9BX68)
[21] = target: MDH2 (human) (UniProt P40926)
[22] = target: METTL17 (human) (UniProt Q9H7H0)
[23] = target: MICU2 (human) (UniProt Q8IYU8)
[24] = target: MMAB (human) (UniProt Q96EY8)
[25] = target: MRPL21 (human) (UniProt Q7Z2W9)
[26] = target: MRPL46 (human) (UniProt Q9H2W6)
[27] = target: MRPL47 (human) (UniProt Q9HD33)
[28] = target: MRPL54 (human) (UniProt Q6P161)
[29] = target: MRPS17 (human) (UniProt Q9Y2R5)
[30] = target: MRPS24 (human) (UniProt Q96EL2)
[31] = target: MRPS7 (human) (UniProt Q9Y2R9)
[32] = target: MRRF (human) (UniProt Q96E11)
[33] = target: MTHFD2 (human) (UniProt P13995)
[34] = target: MTRF1L (human) (UniProt Q9UGC7)
[35] = target: NDUFA6 (human) (UniProt P56556)
[36] = target: NDUFAF1 (human) (UniProt Q9Y375)
[37] = target: NDUFAF5 (human) (UniProt Q5TEU4)
[38] = target: NDUFAF7 (human) (UniProt Q7L592)
[39] = target: NDUFS2 (human) (UniProt O75306)
[40] = target: NDUFV2 (human) (UniProt P19404)
[41] = target: NUBPL (human) (UniProt Q8TB37)
[42] = target: NUDT1 (human) (UniProt P36639)
[43] = target: OGDH (human) (UniProt Q02218)
[44] = target: OXA1L (human) (UniProt Q15070)
[45] = target: PDE12 (human) (UniProt Q6L8Q7)
[46] = target: PITRM1 (human) (UniProt Q5JRX3)
[47] = target: PMPCA (human) (UniProt Q10713)
[48] = target: PRKCA (human) (UniProt P17252)
[49] = target: QRSL1 (human) (UniProt Q9H0R6)
[50] = target: RNMTL1 (human) (UniProt Q9HC36)
[51] = target: SHMT2 (human) (UniProt P34897)
[52] = target: SLIRP (human) (UniProt Q9GZT3)
[53] = target: THEM4 (human) (UniProt Q5T1C6)
[54] = target: THNSL1 (human) (UniProt Q8IYQ7)
[55] = target: UQCRB (human) (UniProt P14927)
[56] = target: VARS2 (human) (UniProt Q5ST30)
[57] = target: VWA8 (human) (UniProt A3KMH1)
[58] = target: ZADH2 (human) (UniProt Q8N4Q0)

NDUFS2 (human), sequence (O75306 34-463 limits assumed): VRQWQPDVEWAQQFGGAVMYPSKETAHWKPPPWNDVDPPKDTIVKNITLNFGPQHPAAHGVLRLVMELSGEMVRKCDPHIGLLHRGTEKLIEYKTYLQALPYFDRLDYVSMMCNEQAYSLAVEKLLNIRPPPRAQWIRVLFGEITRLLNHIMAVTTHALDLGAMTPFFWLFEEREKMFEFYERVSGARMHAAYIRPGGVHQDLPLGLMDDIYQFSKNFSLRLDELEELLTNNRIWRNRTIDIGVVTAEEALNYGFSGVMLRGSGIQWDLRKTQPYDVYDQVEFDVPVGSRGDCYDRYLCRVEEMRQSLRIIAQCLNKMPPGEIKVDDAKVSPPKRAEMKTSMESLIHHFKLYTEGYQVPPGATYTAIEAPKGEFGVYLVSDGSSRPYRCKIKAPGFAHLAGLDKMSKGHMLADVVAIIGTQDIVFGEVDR
ABAT (human), sequence (P80404 29-500 limits assumed): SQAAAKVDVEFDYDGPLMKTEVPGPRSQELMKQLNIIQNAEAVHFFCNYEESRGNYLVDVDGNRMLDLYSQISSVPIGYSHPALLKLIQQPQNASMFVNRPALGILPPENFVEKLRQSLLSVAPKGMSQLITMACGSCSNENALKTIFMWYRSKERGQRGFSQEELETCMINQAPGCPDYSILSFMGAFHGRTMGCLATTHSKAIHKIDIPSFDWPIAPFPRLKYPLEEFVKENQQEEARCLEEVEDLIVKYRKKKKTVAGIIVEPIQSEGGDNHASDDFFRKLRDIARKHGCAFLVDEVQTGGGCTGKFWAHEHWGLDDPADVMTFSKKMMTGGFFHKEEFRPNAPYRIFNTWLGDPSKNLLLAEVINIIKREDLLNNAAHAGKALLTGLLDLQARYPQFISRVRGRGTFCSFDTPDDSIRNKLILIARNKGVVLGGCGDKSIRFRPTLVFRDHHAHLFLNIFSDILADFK
THEM4 (human), sequence (Q5T1C6 37-240 limits assumed): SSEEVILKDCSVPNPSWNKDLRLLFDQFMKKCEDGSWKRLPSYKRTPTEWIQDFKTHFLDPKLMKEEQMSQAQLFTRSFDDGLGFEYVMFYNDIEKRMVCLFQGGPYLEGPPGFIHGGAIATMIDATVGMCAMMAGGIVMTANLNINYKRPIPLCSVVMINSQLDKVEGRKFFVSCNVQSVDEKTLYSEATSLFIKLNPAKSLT
MDH2 (human), sequence (P40926 25-338 limits assumed): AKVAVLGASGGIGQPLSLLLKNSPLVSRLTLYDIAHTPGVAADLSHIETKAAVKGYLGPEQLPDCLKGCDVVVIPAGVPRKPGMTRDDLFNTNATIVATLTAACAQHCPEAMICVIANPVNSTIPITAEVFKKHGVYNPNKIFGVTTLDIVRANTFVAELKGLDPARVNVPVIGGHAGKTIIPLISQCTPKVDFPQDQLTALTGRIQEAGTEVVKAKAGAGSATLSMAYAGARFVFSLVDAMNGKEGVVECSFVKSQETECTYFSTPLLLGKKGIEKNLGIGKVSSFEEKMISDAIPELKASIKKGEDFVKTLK
PDE12 (human), sequence (Q6L8Q7 43-609 limits assumed): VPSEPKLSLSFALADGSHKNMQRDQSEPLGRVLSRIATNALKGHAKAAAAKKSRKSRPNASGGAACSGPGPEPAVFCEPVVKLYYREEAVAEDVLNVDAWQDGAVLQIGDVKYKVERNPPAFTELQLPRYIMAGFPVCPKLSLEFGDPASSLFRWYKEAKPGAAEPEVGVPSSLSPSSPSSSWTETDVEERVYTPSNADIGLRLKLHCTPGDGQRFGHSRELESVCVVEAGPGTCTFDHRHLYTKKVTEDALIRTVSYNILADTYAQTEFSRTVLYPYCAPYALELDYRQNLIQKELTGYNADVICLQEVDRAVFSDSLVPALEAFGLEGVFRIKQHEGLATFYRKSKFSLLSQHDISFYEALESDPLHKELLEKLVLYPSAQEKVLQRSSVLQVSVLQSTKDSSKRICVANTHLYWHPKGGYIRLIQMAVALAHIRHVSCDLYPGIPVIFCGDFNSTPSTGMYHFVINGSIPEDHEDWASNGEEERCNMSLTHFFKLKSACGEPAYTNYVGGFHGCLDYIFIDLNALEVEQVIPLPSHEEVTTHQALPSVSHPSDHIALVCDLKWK
NDUFAF1 (human), sequence (Q9Y375 25-327 limits assumed): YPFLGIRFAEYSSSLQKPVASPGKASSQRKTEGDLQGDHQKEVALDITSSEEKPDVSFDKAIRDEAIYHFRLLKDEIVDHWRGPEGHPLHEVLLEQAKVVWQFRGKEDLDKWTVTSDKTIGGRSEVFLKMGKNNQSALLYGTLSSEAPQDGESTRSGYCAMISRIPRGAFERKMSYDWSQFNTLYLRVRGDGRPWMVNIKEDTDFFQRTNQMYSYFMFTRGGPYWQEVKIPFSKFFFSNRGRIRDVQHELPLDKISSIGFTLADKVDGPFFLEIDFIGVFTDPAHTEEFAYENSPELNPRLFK
MMAB (human), sequence (Q96EY8 33-250 limits assumed): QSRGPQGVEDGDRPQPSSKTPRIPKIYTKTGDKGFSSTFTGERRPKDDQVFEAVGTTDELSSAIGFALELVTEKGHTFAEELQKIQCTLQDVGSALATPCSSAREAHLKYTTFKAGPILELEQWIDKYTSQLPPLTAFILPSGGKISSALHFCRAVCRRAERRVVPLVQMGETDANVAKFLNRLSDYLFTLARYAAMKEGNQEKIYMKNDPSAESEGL
MTHFD2 (human), sequence (P13995 36-350 limits assumed): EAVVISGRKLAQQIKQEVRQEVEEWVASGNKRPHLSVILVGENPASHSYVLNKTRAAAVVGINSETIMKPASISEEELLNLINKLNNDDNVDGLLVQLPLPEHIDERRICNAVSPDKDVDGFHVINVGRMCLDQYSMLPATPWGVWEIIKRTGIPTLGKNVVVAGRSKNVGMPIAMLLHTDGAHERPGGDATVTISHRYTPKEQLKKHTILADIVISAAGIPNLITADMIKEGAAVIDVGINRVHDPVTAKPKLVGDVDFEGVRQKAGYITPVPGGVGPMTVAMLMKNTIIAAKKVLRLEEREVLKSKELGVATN
UQCRB (human), sequence (P14927 2-111 limits assumed): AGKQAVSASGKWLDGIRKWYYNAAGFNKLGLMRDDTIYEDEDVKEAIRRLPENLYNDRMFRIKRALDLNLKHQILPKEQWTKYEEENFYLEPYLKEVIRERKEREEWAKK
CDK5RAP1 (human), sequence (Q96SZ6 34-601 limits assumed): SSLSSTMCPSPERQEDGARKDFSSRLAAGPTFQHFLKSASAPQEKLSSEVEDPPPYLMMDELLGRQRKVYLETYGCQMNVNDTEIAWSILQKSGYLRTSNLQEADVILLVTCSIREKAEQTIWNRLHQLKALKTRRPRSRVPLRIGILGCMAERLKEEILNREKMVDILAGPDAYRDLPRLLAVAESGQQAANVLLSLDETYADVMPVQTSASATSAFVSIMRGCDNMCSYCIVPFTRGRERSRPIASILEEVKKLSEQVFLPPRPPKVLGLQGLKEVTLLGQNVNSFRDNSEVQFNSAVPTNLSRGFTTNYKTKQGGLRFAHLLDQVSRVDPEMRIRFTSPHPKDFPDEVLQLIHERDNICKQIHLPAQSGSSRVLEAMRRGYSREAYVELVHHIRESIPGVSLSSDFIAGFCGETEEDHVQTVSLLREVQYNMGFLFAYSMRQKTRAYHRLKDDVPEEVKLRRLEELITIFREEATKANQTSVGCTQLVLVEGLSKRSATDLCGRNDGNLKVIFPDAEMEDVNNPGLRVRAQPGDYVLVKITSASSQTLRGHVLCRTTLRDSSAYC
DHRS4 (human), sequence (Q9BTZ2 whole entry): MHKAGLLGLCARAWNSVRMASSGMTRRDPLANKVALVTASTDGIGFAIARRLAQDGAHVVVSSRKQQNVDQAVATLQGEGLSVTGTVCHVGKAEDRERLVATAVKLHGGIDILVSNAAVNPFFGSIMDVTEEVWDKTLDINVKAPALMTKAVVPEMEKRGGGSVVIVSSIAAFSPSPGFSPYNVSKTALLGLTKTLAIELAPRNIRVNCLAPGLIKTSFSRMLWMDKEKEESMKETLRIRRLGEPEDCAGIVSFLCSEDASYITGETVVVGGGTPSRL
PMPCA (human), sequence (Q10713 34-525 limits assumed): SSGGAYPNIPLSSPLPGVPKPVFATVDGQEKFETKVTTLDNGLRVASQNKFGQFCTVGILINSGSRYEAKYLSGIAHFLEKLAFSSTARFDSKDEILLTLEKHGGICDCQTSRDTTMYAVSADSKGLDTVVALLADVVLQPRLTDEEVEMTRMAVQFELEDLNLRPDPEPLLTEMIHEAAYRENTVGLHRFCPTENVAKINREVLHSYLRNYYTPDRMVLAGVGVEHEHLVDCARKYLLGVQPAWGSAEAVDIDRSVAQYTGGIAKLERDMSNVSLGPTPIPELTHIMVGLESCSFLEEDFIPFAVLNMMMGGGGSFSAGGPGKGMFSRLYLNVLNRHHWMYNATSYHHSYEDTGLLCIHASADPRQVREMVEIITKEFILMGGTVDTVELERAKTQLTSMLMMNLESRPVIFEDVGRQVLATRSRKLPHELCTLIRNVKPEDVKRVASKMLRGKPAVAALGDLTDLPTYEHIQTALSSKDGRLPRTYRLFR
C20orf72 (human), sequence (Q9BQP7 whole entry): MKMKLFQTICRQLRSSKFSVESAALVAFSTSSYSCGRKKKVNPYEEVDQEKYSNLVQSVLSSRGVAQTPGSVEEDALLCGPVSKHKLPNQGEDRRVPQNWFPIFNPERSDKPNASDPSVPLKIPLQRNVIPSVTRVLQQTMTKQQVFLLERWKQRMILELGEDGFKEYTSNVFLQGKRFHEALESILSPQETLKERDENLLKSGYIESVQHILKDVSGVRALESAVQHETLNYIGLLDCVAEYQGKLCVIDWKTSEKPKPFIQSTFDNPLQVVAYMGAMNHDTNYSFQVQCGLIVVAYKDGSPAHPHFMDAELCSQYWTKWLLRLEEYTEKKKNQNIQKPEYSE
GATC (human), sequence (O43716 58-136 limits assumed): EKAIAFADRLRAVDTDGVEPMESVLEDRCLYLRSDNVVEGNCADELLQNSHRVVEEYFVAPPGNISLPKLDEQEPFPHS
NDUFA6 (human), sequence (P56556 whole entry): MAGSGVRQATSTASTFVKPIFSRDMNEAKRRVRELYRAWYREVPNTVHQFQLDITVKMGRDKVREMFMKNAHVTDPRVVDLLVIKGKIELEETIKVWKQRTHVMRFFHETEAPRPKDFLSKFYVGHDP

Log2 Fold change (vs control) [1]: -3.58 log2
Log2 Fold change (vs control) [2]: -0.16 log2
Log2 Fold change (vs control) [3]: 0.28 log2
Log2 Fold change (vs control) [4]: -0.01 log2
Log2 Fold change (vs control) [5]: -2.14 log2
Log2 Fold change (vs control) [6]: 1.68 log2
Log2 Fold change (vs control) [7]: 0.47 log2
Log2 Fold change (vs control) [8]: 0.12 log2
Log2 Fold change (vs control) [9]: -0.26 log2
Log2 Fold change (vs control) [10]: 0.14 log2
Log2 Fold change (vs control) [11]: -0.33 log2
Log2 Fold change (vs control) [12]: -4.09 log2
Log2 Fold change (vs control) [13]: -0.05 log2
Log2 Fold change (vs control) [15]: 0 log2
Log2 Fold change (vs control) [16]: -0.91 log2
Log2 Fold change (vs control) [17]: -0.5 log2
Log2 Fold change (vs control) [18]: 0.8 log2
Log2 Fold change (vs control) [19]: -0.49 log2
Log2 Fold change (vs control) [20]: 0.09 log2
Log2 Fold change (vs control) [21]: -0.03 log2
Log2 Fold change (vs control) [22]: -3.58 log2
Log2 Fold change (vs control) [23]: -0.18 log2
Log2 Fold change (vs control) [24]: 0.11 log2
Log2 Fold change (vs control) [25]: -0.72 log2
Log2 Fold change (vs control) [26]: -0.28 log2
Log2 Fold change (vs control) [27]: -1.94 log2
Log2 Fold change (vs control) [28]: -3 log2
Log2 Fold change (vs control) [29]: -0.55 log2
Log2 Fold change (vs control) [30]: 1.12 log2
Log2 Fold change (vs control) [31]: 0.71 log2
Log2 Fold change (vs control) [32]: -0.1 log2
Log2 Fold change (vs control) [33]: 0.22 log2
Log2 Fold change (vs control) [34]: 0.51 log2
Log2 Fold change (vs control) [35]: 0.44 log2
Log2 Fold change (vs control) [36]: -4.32 log2
Log2 Fold change (vs control) [37]: -0.47 log2
Log2 Fold change (vs control) [38]: 0.04 log2
Log2 Fold change (vs control) [39]: 0.1 log2
Log2 Fold change (vs control) [40]: -0.47 log2
Log2 Fold change (vs control) [41]: -2.58 log2
Log2 Fold change (vs control) [42]: -3.17 log2
Log2 Fold change (vs control) [43]: 1.67 log2
Log2 Fold change (vs control) [44]: -1 log2
Log2 Fold change (vs control) [45]: 0.03 log2
Log2 Fold change (vs control) [46]: -0.16 log2
Log2 Fold change (vs control) [47]: 0.15 log2
Log2 Fold change (vs control) [48]: -3.58 log2
Log2 Fold change (vs control) [49]: -0.01 log2
Log2 Fold change (vs control) [50]: -0.2 log2
Log2 Fold change (vs control) [51]: -0.25 log2
Log2 Fold change (vs control) [52]: 0.25 log2
Log2 Fold change (vs control) [53]: -0.17 log2
Log2 Fold change (vs control) [54]: 0.03 log2
Log2 Fold change (vs control) [55]: -2.38 log2
Log2 Fold change (vs control) [56]: 0.76 log2
Log2 Fold change (vs control) [57]: 1.02 log2
Log2 Fold change (vs control) [58]: -1.46 log2
Substance: FlagBirA-ClpP (Y118A) (from UniProt P06709 1-321; Q16740 57-277) (enzyme)
Log2 Fold change (vs control) [14]: 0.21 log2
